Experimental data reported in article PMC9313104 (Biomedicines, 2022).
“Also recorded” adds a separate entry of the source. Where two headings read alike, the source gives them in different places.

Columns and labels:
Na,K-ATPase [1] = test system: Na,K-ATPase; parameters: method as in 2 sources, one per row (each row's own in cited_ref): ref [10],[18] = [10]; PMID 30210292; doi:10.3389/fnmol.2018.00302; 10. Barykin E.P. Petrushanko I.Y. Kozin S.A. Telegin G.B. Chernov A.S. Lopina O.D. Radko S.P. Mitkevich V.A. Makarov A.A. Phosphorylation of the Amyloid-Beta Peptide Inhibits Zinc-Dependent Aggregatio || [18]; PMID 27296892; doi:10.1038/srep27738; 18. Petrushanko I.Y. Mitkevich V.A. Anashkina A.A. Adzhubei A.A. Burnysheva K.M. Lakunina V.A. Kamanina Y.V. Dergousova E.A. Lopina O.D. Ogunshola O.O. Direct Interaction of Beta-Amyloid with Na,K-ATP ||| ref [39] = [39]; PMID 26297827; doi:10.1016/j.febslet.2015.08.011; 39. Klimanova E.A. Petrushanko I.Y. Mitkevich V.A. Anashkina A.A. Orlov S.N. Makarov A.A. Lopina O.D. Binding of Ouabain and Marinobufagenin Leads to Different Structural Changes in Na,K-ATPase and De; settings: ref [39]; cited from earlier work
duck Na,K-ATPase [2] = target: T1, duck Na,K-ATPase (Anas platyrhynchos, UniProt Q7ZYV1); format: binding; settings: 25 °C, pH 7.5, unit not given
Description: (§1) Purified preparation of Na,K-ATPase was obtained from duck salt glands as described elsewhere.
(§2) Experiments were carried out at 25 °C in four buffers, as described elsewhere: (E2P buffer) 10 mM imidazole, 3 mMTris/Pi, 1 mM EDTA, 3 mM MgCl2, 0.1 mM DTT, pH 7.5; (E1/E2 buffer) 10 mM imidazole, 130 mM NaCl, 20 mM KCl, 3 mM MgCl2, 0.1 mM DTT, pH 7.5; (E1 buffer) 10 mM imidazole, 1 mM EDTA, 3 mM NaCl, 0.1 mM DTT, pH 7.5; (E2 buffer) 10 mM imidazole, 1 mM EDTA, 3 mM KCl, and 0.1 mM DTT, pH 7,5. […] Aliquots (2.6 μL) of ligands were injected into a 0.24 mL cell containing the protein solution to achieve a complete binding isotherm. […] Equivalent amounts of DMSO was added to protein solutions to avoid thermal effects of dissolution.
(§3) The effective heat of binding was obtained by subtracting the heat of dilution from the heat of reaction. MicroCal Origin software was used to fit isothermal titration curves. […] The Gibbs energy and enthalpy changes […] were estimated according to the equations: ∆G = −RT lnKa and ∆G = ∆H − T∆S.

duck Na,K-ATPase [3] = target: T1, duck Na,K-ATPase; experiment: Isothermal titration calorimetry (MicroCal iTC200), Aβ42 binding to Na,K-ATPase in different states; settings: 25 °C; for T∆S, entropy variation: calculated from ∆G = ∆H − T∆S; for ∆H, enthalpy variation: three to four measurements, SD did not exceed ±10%
Description: Briefly, the peptide was dissolved in hexafluoroisopropanol (Fluka), dried, and stored at −80 °C. Before the experiment, the peptide was dissolved in DMSO for 1 h and then diluted in the buffer solution.
as §1, §2, §3

[4] = test system: neuroblastoma cells SH-SY5Y; settings: ref [18]; cited from earlier work
Excerpt: (§4) Here we study the binding interface of Aβ with Na,K-ATPase. Na,K-ATPase creates a sodium/potassium gradient, and inhibition of pump activity by Aβ leads to impairment of electrotonic properties of neurons.

Na,K-ATPase [5] = settings: ref [18]; cited from earlier work
Excerpt: as §4

[6] = hexafluoroisopropanol, dried, DMSO for 1 h, diluted in buffer; ref [18]; cited from earlier work
Description: Aβ42 peptide was synthesized by Biopeptide. […] Briefly, the peptide was dissolved in hexafluoroisopropanol (Fluka), dried, and stored at −80 °C. Before the experiment, the peptide was dissolved in DMSO for 1 h and then diluted in the buffer solution.

[7] = Na,K-ATPase in complex with Aβ42
[8] = enzyme in E2P conformation (without Aβ42)
[9] = OBN state (26 µM ouabain), pH 7.5

C[C@@H]1O[C@@H](O[C@H]2C[C@@H](O)[C@]3(CO)[C@H]4[C@H](O)C[C@]5(C)[C@@H](C6=CC(=O)OC6)CC[C@]5(O)[C@@H]4CC[C@]3(O)C2)[C@H](O)[C@H](O)[C@H]1O [ouabain]
Na,K-ATPase conformation bound (Na,K-ATPase [1]): binds predominantly to the E2P conformation | T∆S (duck Na,K-ATPase [2]; [7]): −10.8 | ∆H (duck Na,K-ATPase [2]; [7]): −20.2 ± 0.7 | T∆S (duck Na,K-ATPase [2]; [8]): −4.2 | ∆H (duck Na,K-ATPase [2]; [8]): −13.7 ± 0.2

Aβ42: Aβ42 peptide was synthesized by Biopeptide
T∆S, entropy variation (duck Na,K-ATPase [3]; E1/E2 state, pH 7.5): 5.48 kcal/mol | ∆H, enthalpy variation (duck Na,K-ATPase [3]; E1/E2 state, pH 7.5): -2.54 kcal/mol | T∆S, entropy variation (duck Na,K-ATPase [3]; E1 state, pH 7.5): 6.02 kcal/mol | ∆H, enthalpy variation (duck Na,K-ATPase [3]; E1 state, pH 7.5): -1.54 kcal/mol | T∆S, entropy variation (duck Na,K-ATPase [3]; E2P state, pH 7.5): 6.19 kcal/mol | ∆H, enthalpy variation (duck Na,K-ATPase [3]; E2P state, pH 7.5): -1.59 kcal/mol | Ka, affinity constant (duck Na,K-ATPase [3]; E2 state, 10 mM imidazole, 1 mM EDTA, 3 mM KCl, 0.1 mM DTT, pH 7.5, measured three to four times, SD did not exceed ±20%): 490000 M⁻¹ | T∆S, entropy variation (duck Na,K-ATPase [3]; E2 state, pH 7.5): 5.55 kcal/mol | ∆H, enthalpy variation (duck Na,K-ATPase [3]; E2 state, pH 7.5): -2.21 kcal/mol | T∆S, entropy variation (duck Na,K-ATPase [3]; [9]): 6.87 kcal/mol | ∆H, enthalpy variation (duck Na,K-ATPase [3]; [9]): -1.21 kcal/mol | Aβ42 binding to Na,K-ATPase in complex with ouabain compared with free enzyme (duck Na,K-ATPase [3]; OBN state, sequential titration with ouabain then Aβ42 in E2P buffer): in the same way as the free enzyme; also recorded: did not change | effect of exogenous Aβ42 on enzyme transport and hydrolytic activity [4]: pronounced decrease in enzyme transport and hydrolytic activity | effect of complex formation on enzyme hydrolytic activity (Na,K-ATPase [5]): dose-dependent inhibition of enzyme hydrolytic activity | form present in the solution [6]: mainly in the monomeric form
